According to patent US20110008350A1 (published 2011):

B1: dTag PSH1 (double-tagged human Presenilin homolog 1) (other, UniProt Q8TCT6 1-384, looked up, not shown: small tags and cut ends)
chain: MAEQTYSWAYSLVDSSQVSTFLISILLIVYGSFRSLNMDFENQDKEKDSNSSSGSFNGNSTNNSIQTIDSTQALFLPIGASVSLLVMFFFFDSVQVVFTICTAVLATIAFAFLLLPMCQYLTRPCSPQNKISFGCCGRFTAAELLSFSLSVMLVLIWVLTGHWLLMDALAMGLCVAMIAFVRLPSLKVSCLLLSGLLIYDVFWVFFSAYIFNSNVMVKVATQPADNPLDVLSRKLHLGPNVGRDVPRLSLPGKLVFPSSTGSHFSMLGIGDIVMPGLLLCFVLRYDNYKKQASGDSCGAPGPANISGRMQKVSYFHCTLIGYFVGLLTATVASRIHRAAQPALLYLVPFTLLPLLTMAYLKGDLRRMWSEPFHSKSSSSRFLEV
notes: Control bait, stably expressed in PS dKO MEF cells; also called dTag SPPL3; SPP-like protease 3

Key:
Integrin alpha-3 = target: T1, Integrin alpha-3 (mouse, UniProt Q62470 33-1053, limits assumed); assay: TAP-tag purification from MEF membranes, LC-MS/MS
T1 construct: also called Itga3; α3β1 integrin (alpha chain)
T1 sequence (looked up): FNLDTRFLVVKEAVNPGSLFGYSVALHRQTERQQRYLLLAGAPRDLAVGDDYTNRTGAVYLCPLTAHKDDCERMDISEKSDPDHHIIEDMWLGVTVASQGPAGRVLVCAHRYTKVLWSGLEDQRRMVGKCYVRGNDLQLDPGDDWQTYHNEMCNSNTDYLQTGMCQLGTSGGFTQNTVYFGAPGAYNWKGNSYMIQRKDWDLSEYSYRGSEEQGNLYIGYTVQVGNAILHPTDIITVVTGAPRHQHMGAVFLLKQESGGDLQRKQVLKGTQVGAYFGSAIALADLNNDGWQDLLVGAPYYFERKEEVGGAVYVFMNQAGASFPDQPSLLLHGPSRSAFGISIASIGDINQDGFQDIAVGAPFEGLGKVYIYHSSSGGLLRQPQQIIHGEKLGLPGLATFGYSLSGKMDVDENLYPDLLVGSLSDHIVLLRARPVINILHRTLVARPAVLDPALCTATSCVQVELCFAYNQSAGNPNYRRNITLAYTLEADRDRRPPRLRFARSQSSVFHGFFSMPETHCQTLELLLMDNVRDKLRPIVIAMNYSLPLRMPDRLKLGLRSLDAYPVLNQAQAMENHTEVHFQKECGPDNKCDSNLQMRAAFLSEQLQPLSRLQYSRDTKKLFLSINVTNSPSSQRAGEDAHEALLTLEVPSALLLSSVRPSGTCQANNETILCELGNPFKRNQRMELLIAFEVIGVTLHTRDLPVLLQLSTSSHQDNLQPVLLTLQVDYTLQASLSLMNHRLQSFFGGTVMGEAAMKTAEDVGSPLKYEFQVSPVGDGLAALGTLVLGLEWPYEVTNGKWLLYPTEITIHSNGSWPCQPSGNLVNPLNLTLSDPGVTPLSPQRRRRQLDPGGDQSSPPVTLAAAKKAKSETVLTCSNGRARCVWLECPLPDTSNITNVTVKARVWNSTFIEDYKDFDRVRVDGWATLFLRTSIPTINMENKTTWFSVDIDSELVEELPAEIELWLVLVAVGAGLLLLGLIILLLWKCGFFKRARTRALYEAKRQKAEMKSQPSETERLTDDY
Protocol: (§1) Harvested MEF cells were re-suspended in STE buffer (5 mM Tris-HCl pH 7.4, 250 mM sucrose, 1 mM EGTA) supplemented with the Complete protease inhibitors. The cells were lysed by being passed ten times through a ball-bearing cell cracker followed by removal of the nuclei and cell debris by centrifugation at 800×g for ten minutes at 4° C. The supernatant was further centrifuged at 100,000×g for 60 minutes at 4° C. The microsomal membrane pellet was re-suspended in the solubilization buffer (HEPES buffer; 50 mM HEPES pH 7.2, 150 mM NaCl with 1% 3-[(3-Cholamidopropyl)dimethylammonio]-2-hydroxy-1-propanesulfonate (CHAPSO, Calbiochem) or 0.5% 3-[(3-Cholamidopropyl) dimethylammonio]-1-propanesulfonate (CHAPS, Calbiochem)) supplemented with the Complete protease inhibitors and was solubilized at 4° C. for three hours. After centrifugation at 100,000×g for 60 minutes at 4° C., the supernatant was saved and protein concentration was determined. The solubilized membranes were applied on pre-equilibrated anti-FLAG M2 affinity gel (Sigma). The gel was washed with the solubilization buffer and bound proteins were eluted with solubilization buffer with 20 μg/ml of FLAG peptides (Sigma). […] After washing, the bound proteins were eluted with 5 mM EGTA.

Integrin beta-1 = target: T2, Integrin beta-1 (mouse, UniProt P09055 21-798); assay: TAP-tag purification from MEF membranes, LC-MS/MS
T2 construct: also called Itgb1; α3β1 integrin (beta chain)
Protocol: as §1

[1] = target: T3, PGRL/EWI-2 (endogenous, MEF cells) (mouse, UniProt Q8R366 26-611); assay: TAP-tag purification from MEF membranes, LC-MS/MS
T3 construct: also called Igsf8
T3 sequence (looked up): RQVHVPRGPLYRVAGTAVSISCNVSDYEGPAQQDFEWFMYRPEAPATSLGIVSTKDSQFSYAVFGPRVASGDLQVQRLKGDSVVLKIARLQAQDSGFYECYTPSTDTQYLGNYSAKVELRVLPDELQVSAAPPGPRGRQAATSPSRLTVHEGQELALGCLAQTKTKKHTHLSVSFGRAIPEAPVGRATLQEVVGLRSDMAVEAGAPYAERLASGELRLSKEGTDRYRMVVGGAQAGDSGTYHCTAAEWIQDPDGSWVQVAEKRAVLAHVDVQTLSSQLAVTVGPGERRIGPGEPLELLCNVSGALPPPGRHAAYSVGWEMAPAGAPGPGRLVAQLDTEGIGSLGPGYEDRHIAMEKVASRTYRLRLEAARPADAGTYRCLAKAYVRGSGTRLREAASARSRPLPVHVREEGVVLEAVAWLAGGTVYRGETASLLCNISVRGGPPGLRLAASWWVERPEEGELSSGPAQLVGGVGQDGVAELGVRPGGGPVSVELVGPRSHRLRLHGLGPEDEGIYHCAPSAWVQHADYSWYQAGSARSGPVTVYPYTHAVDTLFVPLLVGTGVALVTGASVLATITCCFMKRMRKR
Protocol: as §1

[2] = target: T4, Nicastrin (endogenous, MEF cells) (mouse, UniProt P57716 28-708); assay: TAP-tag purification from MEF membranes, Western blot
T4 construct: also called NCT
Protocol: Insoluble fractions were removed by centrifugation at 15,000×g for 15 minutes at 4° C. Protein concentration was determined by the Bradford dye-binding procedure (Bio-Rad). […] Membranes were blocked with 5% skim milk in TBS and probed with antibodies followed by incubation with horseradish peroxidase conjugated antibodies (Bio-Rad). Bands were detected with Renaissance (ParkinElmer).
Harvested MEF cells were re-suspended in STE buffer (5 mM Tris-HCl pH 7.4, 250 mM sucrose, 1 mM EGTA) supplemented with the Complete protease inhibitors. The cells were lysed by being passed ten times through a ball-bearing cell cracker followed by removal of the nuclei and cell debris by centrifugation at 800×g for ten minutes at 4° C. The supernatant was further centrifuged at 100,000×g for 60 minutes at 4° C. The microsomal membrane pellet was re-suspended in the solubilization buffer (HEPES buffer; 50 mM HEPES pH 7.2, 150 mM NaCl with 1% 3-[(3-Cholamidopropyl)dimethylammonio]-2-hydroxy-1-propanesulfonate (CHAPSO, Calbiochem) or 0.5% 3-[(3-Cholamidopropyl) dimethylammonio]-1-propanesulfonate (CHAPS, Calbiochem)) supplemented with the Complete protease inhibitors and was solubilized at 4° C. for three hours. After centrifugation at 100,000×g for 60 minutes at 4° C., the supernatant was saved and protein concentration was determined. […]

[3] = target: B1; assay: TAP-tag purification from MEF membranes, LC-MS/MS
Protocol: as §1

Binder: B1
- binding result (Integrin alpha-3): no binding
- binding result (Integrin beta-1): no binding
- binding result [1]: no binding
- binding result [2]: no binding

B2: CD81/TAPA-1 (endogenous, MEF cells) (other, mouse, UniProt P35762 1-236, looked up)
chain: MGVEGCTKCIKYLLFVFNFVFWLAGGVILGVALWLRHDPQTTSLLYLELGNKPAPNTFYVGIYILIAVGAVMMFVGFLGCYGAIQESQCLLGTFFTCLVILFACEVAAGIWGFVNKDQIAKDVKQFYDQALQQAVMDDDANNAKAVVKTFHETLNCCGSNALTTLTTTILRNSLCPSGGNILTPLLQQDCHQKIDELFSGKLYLIGIAAIVVAVIMIFEMILSMVLCCGIRNSSVY
- binding result [3]: no binding
